Data published in patent US20090149339A1 (published 2009).
Ends that are not written are not given here. * marks the point of attachment. Biotin = O=C1N[C@H]2[C@H](CS[C@H]2CCCCC(=O)*)N1

Tests used:
[1] = target: GST-LIMK2 PDZ domain fusion protein (human LIM domain kinase 2 AA185-275; PDZ domain 1 of 1) (human, UniProt P08515 1-218 = GST); assay: A/G assays
[2] = target: GST-DVL1 PDZ domain fusion protein (human dishevelled segment polarity protein homolog AA248-340); PDZ domain … (human, UniProt P08515 1-218 = GST); assay: A/G assays
GST-DVL1 PDZ domain fusion protein (human dishevelled segment polarity protein homolog AA248-340); PDZ domain …, sequence (P08515 1-218, tags or fused parts left off): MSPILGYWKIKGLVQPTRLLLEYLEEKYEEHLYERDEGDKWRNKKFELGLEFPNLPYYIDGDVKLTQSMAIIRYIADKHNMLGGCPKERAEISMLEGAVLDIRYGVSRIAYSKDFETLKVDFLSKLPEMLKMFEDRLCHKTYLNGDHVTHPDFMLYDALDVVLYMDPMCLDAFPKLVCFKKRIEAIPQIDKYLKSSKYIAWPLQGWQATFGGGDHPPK

[3] = target: T1, GST-TAX2 PDZ domain fusion protein (human tax interaction protein 2 AA54-140; PDZ domain 1 of 1) (human, UniProt P08515 1-218 = GST); assay: A/G assays
T1 construct: also called TX 2
T1 sequence (P08515 1-218, tags or fused parts left off): as above

[4] = target: T2, GST-41.8 kD PDZ domain fusion protein (hypothetical 41.8 kD protein AA4-85; PDZ domain 1 of 1) (UniProt P08515 1-218 = GST); assay: A/G assays
T2 construct: also called hypoth
T2 sequence (P08515 1-218, tags or fused parts left off): as above

[5] = target: GST-MINT3 PDZ domain fusion protein (human MINT3 AA11-52; PDZ domain 1 of 1) (human, UniProt P08515 1-218 = GST); assay: A/G assays
GST-MINT3 PDZ domain fusion protein (human MINT3 AA11-52; PDZ domain 1 of 1), sequence (P08515 1-218, tags or fused parts left off): as above

[6] = target: GST-PTN-4 PDZ domain fusion protein (protein-tyrosine phosphatase meg1 AA774-862; PDZ domain 1 of 1) (UniProt P08515 1-218 = GST); assay: A/G assays
GST-PTN-4 PDZ domain fusion protein (protein-tyrosine phosphatase meg1 AA774-862; PDZ domain 1 of 1), sequence (P08515 1-218, tags or fused parts left off): as above

[7] = target: T3, GST-KIAA0559 PDZ domain fusion protein (KIAA0559 AA766-870; PDZ1 of 1) (UniProt P08515 1-218 = GST); assay: A/G assays
T3 construct: also called K559
T3 sequence (P08515 1-218, tags or fused parts left off): as above

[8] = target: T4, GST-TIAM1 PDZ domain fusion protein (T-lymphoma invasion and metastasis inducing protein 1 AA1001-1088); PDZ 1 … (UniProt P08515 1-218 = GST); assay: A/G assays
[9] = target: T5, GST-TAX33 PDZ domain fusion protein (tax interaction protein 33 AA73-162; PDZ domain 1 of 1) (UniProt P08515 1-218 = GST); assay: A/G assays
T5 construct: also called TX33
T5 sequence (P08515 1-218, tags or fused parts left off): as above

[10] = target: T6, GST-TAX40 PDZ domain fusion protein (human tax interaction protein 40 AA35-137; PDZ domain 1 of 1) (human, UniProt P08515 1-218 = GST); assay: A/G assays
T6 construct: also called TX 40
T6 sequence (P08515 1-218, tags or fused parts left off): as above

[11] = target: GST-LIM PDZ domain fusion protein (Human LIM protein AA29-112; PDZ domain 1 of 1) (human, UniProt P08515 1-218 = GST); assay: A/G assays
GST-LIM PDZ domain fusion protein (Human LIM protein AA29-112; PDZ domain 1 of 1), sequence (P08515 1-218, tags or fused parts left off): as above

[12] = target: T7, GST-MPP2 PDZ domain fusion protein (maguk p55 subfamily member 2 (DLG2) AA185-273; PDZ domain 1 of 1) (UniProt P08515 1-218 = GST); assay: A/G assays
T7 construct: also called MMP2
T7 sequence (P08515 1-218, tags or fused parts left off): as above

[13] = target: T8, GST-KIAA0316 PDZ domain fusion protein (KIAA0316 AA197-284; PDZ domain 1 of 1) (UniProt P08515 1-218 = GST); assay: A/G assays
T8 construct: also called K316
T8 sequence (P08515 1-218, tags or fused parts left off): as above

[14] = target: T9, GST-CASK PDZ domain fusion protein (CASK AA495-584; PDZ domain 1 of 1) (mouse, UniProt P08515 1-218 = GST); assay: A/G assays
T9 construct: also called mCASK
T9 sequence (P08515 1-218, tags or fused parts left off): as above

[15] = target: GST-MPP1 PDZ domain fusion protein (55 Kd erythrocyte membrane protein AA101-186; PDZ domain 1 of 1) (UniProt P08515 1-218 = GST); assay: A/G assays
[16] = target: T10, GST-SYN1a PDZ domain fusion protein (alpha1-syntrophin AA96-189; PDZ domain 1 of 1) (UniProt P08515 1-218 = GST); assay: A/G assays
T10 construct: also called SYN 1 alpha; SYNTR 1 alpha
T10 sequence (P08515 1-218, tags or fused parts left off): as above

[17] = target: T11, GST-CBP PDZ domain fusion protein (Cytohesin binding protein HE AA85-175; PDZ domain 1 of 1) (UniProt P08515 1-218 = GST); assay: A/G assays
T11 construct: also called Prot
T11 sequence (P08515 1-218, tags or fused parts left off): as above

[18] = target: GST-NOS1 PDZ domain fusion protein (human neuronal nitric oxide synthase; PDZ domain 1 of 1) (human, UniProt P08515 1-218 = GST); assay: A/G assays
GST-NOS1 PDZ domain fusion protein (human neuronal nitric oxide synthase; PDZ domain 1 of 1), sequence (P08515 1-218, tags or fused parts left off): as above

[19] = target: GST-AF6 PDZ domain fusion protein (af-6 protein AA985-1077; PDZ domain 1 of 1) (UniProt P08515 1-218 = GST); assay: A/G assays
GST-AF6 PDZ domain fusion protein (af-6 protein AA985-1077; PDZ domain 1 of 1), sequence (P08515 1-218, tags or fused parts left off): as above

[20] = target: T12, GST-TAX43 PDZ domain fusion protein (human tax interaction protein 43 AA15-85; PDZ domain 1 of 1) (human, UniProt P08515 1-218 = GST); assay: A/G assays
T12 construct: also called TX 43
T12 sequence (P08515 1-218, tags or fused parts left off): as above

[21] = target: T13, GST-KIAA0303 PDZ domain fusion protein (KIAA0303 AA652-742; PDZ domain 1 of 1) (UniProt P08515 1-218 = GST); assay: A/G assays
T13 construct: also called K303
T13 sequence (P08515 1-218, tags or fused parts left off): as above

[22] = target: GST-prIL16 PDZ domain fusion protein (putative interleukin 16 precursor AA170-383; PDZ domains 1-2 of 2) (UniProt P08515 1-218 = GST); assay: A/G assays
[23] = target: T14, GST-RGS12 PDZ domain fusion protein (human regulator of G-protein signalling 12 AA35-103; PDZ domain 1 of 1) (human, UniProt P08515 1-218 = GST); assay: A/G assays
T14 construct: also called RSG12
T14 sequence (P08515 1-218, tags or fused parts left off): as above

[24] = target: T15, GST-PSD95 PDZ domain fusion protein (human post-synaptic density protein 95 AA387-724; PDZ domains 1-3 of 3) (human, UniProt P08515 1-218 = GST); assay: A assay
[25] = target: T16, GST-NeDLG PDZ domain fusion protein (presynaptic protein sao102, neuroendocrine-dlg; PDZ domains 1-2 of 3) (UniProt P08515 1-218 = GST); assay: A assay
T16 construct: also called NeDLG1
T16 sequence (P08515 1-218, tags or fused parts left off): as above

[26] = target: T16, GST-NeDLG PDZ domain fusion protein …; assay: A and G assays
[27] = target: T2, GST-41.8 kD PDZ domain fusion protein …; assay: A assay
[28] = target: T15, GST-PSD95 PDZ domain fusion protein …; assay: A/G assays
[29] = target: T16, GST-NeDLG PDZ domain fusion protein …; assay: A/G assays
[30] = target: T7, GST-MPP2 PDZ domain fusion protein …; assay: G assay
[31] = target: T2, GST-41.8 kD PDZ domain fusion protein …; assay: A and G assays
[32] = target: T4, GST-TIAM1 PDZ domain fusion protein …; assay: A assay

GST-LIMK2 PDZ domain fusion protein (human LIM domain kinase 2 AA185-275; PDZ domain 1 of 1), sequence (P08515 1-218, tags or fused parts left off): as above

| Binder | binding result [1] | binding result [2] | binding result [3] | binding result [5] | binding result [6] | binding result [7] | binding result [8] | binding result [9] | binding result [10] | binding result [11] | binding result [12] | binding result [13] | binding result [15] | binding result [16] | binding result [17] | binding result [18] | binding result [19] | binding result [20] | binding result [21] | binding result [22] | other results |
| --- | --- | --- | --- | --- | --- | --- | --- | --- | --- | --- | --- | --- | --- | --- | --- | --- | --- | --- | --- | --- | --- |
| Biotin-VTSPNKHLGLVTPHKTELV [CD83 C-terminal PL peptide AA47L, biotinylated] | no binding | no binding | no binding | no binding | no binding | no binding | no binding | no binding | no binding | no binding | no binding | no binding | no binding | no binding | no binding | no binding | no binding | no binding | no binding | no binding | binding result [4]: no binding; binding result [14]: no binding; binding result [23]: no binding; binding result [24]: binds; binding result [25]: binds |
| Biotin-KDSRPSFVGSSSGHTSTTL [CDW128B (IL8RB) C-terminal PL peptide AA29.2L, biotinylated] | no binding | no binding | no binding | no binding | no binding | no binding | no binding | no binding | no binding | no binding | no binding | no binding | no binding | no binding | no binding | no binding | no binding | no binding | no binding | no binding | binding result [14]: no binding; binding result [26]: binds; binding result [27]: binds; binding result [24]: binds |
| Biotin-ERLKLEPHEGLLLRFPYAA [CD98 (2F4) C-terminal PL peptide AA15L, biotinylated] | no binding | no binding | no binding | no binding | no binding | no binding | no binding | no binding | no binding | no binding |  | no binding | no binding | no binding | no binding | no binding | no binding | no binding | no binding | no binding | binding result [4]: no binding; binding result [28]: no binding; binding result [14]: no binding; binding result [29]: no binding; binding result [23]: no binding; binding result [30]: binds |
| Biotin-PKQANGGAYQKPTKQEEFYA [CD138 (syndecan) C-terminal PL peptide AA18L, biotinylated] | no binding | no binding | no binding | no binding | no binding | no binding |  | no binding | no binding | no binding | no binding | no binding | no binding | no binding | no binding | no binding | no binding | no binding | no binding | no binding | binding result [28]: no binding; binding result [29]: no binding; binding result [23]: no binding; binding result [31]: binds; binding result [32]: binds |
